Test system: MS2 coat protein
Test: apparent KD of MS2 coat protein; higher = weaker reporter binding
Details: Eterna round: R107
In short: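 The designed RNA switches were transcribed on-chip from Illumina sequencing clusters. In 100 mM Tris-HCl pH 7.5, 80 mM KCl and 4 mM MgCl2, without or with constant ligand, they were titrated with SNAP-549-labelled MS2 coat protein from 0.7 or 1.5 nM to 3 µM in twofold steps. Apparent KD is the per-design median of normalised cluster binding-curve fits.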

[1] = input ligand: theophylline 20 uM
[2] = input ligand: theophylline 2 mM
[3] = input ligand: tryptophan 2.4 mM

Sequence	apparent KD of MS2 coat protein (input ligand: arginine 13.2 mM) [nM]	apparent KD of MS2 coat protein (input ligand: none) [nM]	apparent KD of MS2 coat protein [1] [nM]	apparent KD of MS2 coat protein [2] [nM]	apparent KD of MS2 coat protein [3] [nM]
CUGACGGACUCGGCCGCCACUGAUAGUAGGACAUGAGGAUCACCCAUGUAAACGAACCUCAUAGCCAGGACCGGGAGUCACGAAG [Same State Tryptophan B GF 22]	56.4	204	189	410	49.5
CCGUAGCUAGGAAGGAGCGCAUACUUCACAUGAGGAUCACCCAUGUCGAGACGUGAGUCAGUGCAGGUAGGUCGCCUAGCUAUGG [Same State - Arginine B (Freestyle 28)]	23.5	15.5	26.4	30.5	15.7
CAUCAUGGGCUUGGACAAAUUGUGCUUGAUACCAGAAAUCACCGGUUCCCUUGGCAGCAACCCACAUGAGGAUCACCCAUGUGGA [theeternabot_exclusion_MS2_Theo_A_4]	18.6		20.1		23
UGGGUACAUGAGGAUCACCCAUGUACUGAAGGAGCGGGACGAAUCUCAGGUAGGUCGCAGACAUGAGGAUCACCCAUGUAGUGGA [Exclusion Arginine A GF 15]	13.9	15.9	17.8	17.2	14.6
AUAACAUGAGGAUCACCCAUGUAUUGGUUACGAGGACCGGUACGGCCGCCACUCGUAUUAUAGUGGUAUUUUGUUUAUAUGAUAA [JR_Nu_TrtptoA_Sub019]	14.8		20	18.4	
AUAUAUACAUGAGGAUCACCCAUGUUAUUUCGAGGACCGGUACGGCCGCCACUCGAUAGAGUAGAAGUAAAUUUUGAUUCAUGUA [JR_SSTryptoA_Sub009]	17.9		27	23.5	
AGCAUGUUAUCAGAUACCAGACAUCUUUUAAAACAUAUUACAUGAGGAUCACCCAUGUUGGUCCCUUGGCAGCUGAAAUAUUUCA [JR_Nu_SSTheophyB_Sub024]	118		223		321
GACAUAUGCUAUGCGCAGGCUACCCUCAGCCGAGGACCGGUACGGCCGCCACUCGUACUACCACAUGAGGAUCACCCAUGUUAUC [theeternabot_exclusion_MS2_Trp_A_29]	20.1		28.4	23.9	
ACAUGAGGAUCACCCAUGUUAAACAGGGUGCGAGGACCGGUACGGCCGCCACUCGGACAUUAUUACGAGUGAAUGGCAACGAUGU [#12 Exclusion Tryptophan A]	26.5		24.1	24.4	
AGUGUAUCCAUCGAUACCAGCCACAACGUAACAUACACAUGAGGAUCACCCAUGUUGUGUGGCCCUUGGCAGCGGUGCCUGUGUA [Same State - Theophylline B Attempt #1 (HarryS)]	14.4		16.4		13.9
AAAGAUCGGAAACGAUCGGCGGCUUGGGCGCGAGGACCGGUACGGCCGCCACUCGGGCAACAUGAGGAUCACCCAUGUUCCUCAU [ETA NP+V+V2 #17]	75.5	146	245	180	189
CGGUCGGUCGGCCGGUGAUUAUGGGAUGAAGGAGCGUGGGAAGCUACAGGUAGGUCGCAUCCGAAACAUCACGAUCACGGAUGUU [SSArg A #26Alt-Ms2 Mod]	46.3		134	101	72.4
GGACUAACCAGAAGGAGCGGCGCGCAGAAACUGCUAAUUCCUCCGCACGAGGAUCACCCGUGUCAGGUAGGUCGCUGGUUAGUCG [ArgBX 28]	10.3		12.4	13.4	11
AAACAUGAGGAUCACCCAUGUAAUUCAGAAGGAGCGUCAUUAUUGACAGGUAGGUCGCUGAUAAAAUUUCUAUACAUCAUGUAUA [JR_SSArginiA_Sub013]	11.9	12.4	15.7	13	13.3
ACAUGAGGAUCACCCAUGUGCAGAACGGAUACCAGCGUCCUGGUACGCCCUUGGCAGCCGGACAUGAGGAUCACCCAUGUGUGGA [Exclusion Theophylline A GF29]	56		161		105
UCUUACUUGGUAGAUACCAGCGUGUUAUCUUUCUUUUGACAUGAGGAUCACCCAUGUAUAUGCCCUUGGCAGCUGCGUAGUGUGU [#03 Same State - Theophylline B]	21.6		35.7		27.4
ACUGCUUUAGCGGCCGCCACUACAUGGACACUUACACUUUCUUGUUACAUGAGGAUCACCCAUGUUAGGACCGGGCUUGUACGGA [theeternabot_exclusion_MS2_Trp_B_31]	30.5		82.6	68.4	

Sequence	apparent KD of MS2 coat protein (input ligand: arginine 13.2 mM) [nM]	apparent KD of MS2 coat protein (input ligand: none) [nM]	apparent KD of MS2 coat protein [1] [nM]	apparent KD of MS2 coat protein [2] [nM]	apparent KD of MS2 coat protein [3] [nM]
AAUAAUAACAUGGGUGCACGAGUGGCAUAACGAGGACCGGUACGGCCGCCACUCGAACAUGAGGAUCACCCAUGUAGCCACUCGA [M'-T'-T-MS2-T'' - Design 4]	55.1	102	102	132	20.5
GUUAUAUUAAUUGAUACCAGCGAGAAAACAUGAGGAUCACCCAUGUUCGCCCAUGUUAAGCGCCCUUGGCAGCAAUUUUAUUAGC [AstrosExyTheB#2]	32.1		44.3		37.5
ACACAUGACAGAAGGAGCGGAAUGAACACACAUGAGGAUCACCCAUGUUUUUUUUGUGUUUUCCAGGUAGGUCGCUGACAUGAGG [#20 Same State - Arginine B]	11.2	8.99	20.7	9.54	8.95
AAUUGGCACUGAAGGAGCGAGUUUACCUAAAUAACAUGAGGAUCACCCAUGUAAAAUGGGACUCAGGUAGGUCGCAGUUGUCAAA [Same State Arginine B GF 22]	48	57.6	76.4	63.7	61.5
AGACUGUCUUCGGACAGUCCGGACAGCCCGCGAGGACCGGUACGGCCGCCACUCGCGUGAGGAUCACCCAUGCGAGGCUGUCCGA [Omei Tryp A Exc A v1]	27.5		40.1	46	69.9
AUAUUUAACGGAAGGAGCGCGGAUAAUAAAGUGGGUAAACAUGAGGAUCACCCAUGUAAACCGCAGGUAGGUCGCCGAUAUAUAU [AstrosEXyARgB#7]	26.4	63.6	54.8	51.2	41.4
AUCUUUGACGAUCUGGGAAAACCAGAUCGGCGAGGACCGGUACGGCCGCCACUCGUGUAUAAUAUACAUGAGGAUCACCCAUGUA [#19 Tryptophan A Same State]	27.3		61.3	53.9	
GGGCAAGAGGGAAGGAGCGUCAGCUGAGUCACAUGAGGAUCACCCAUGUCGCACAUAGUGUGACAGGUAGGUCGCCCUCUACCCU [Esceinan]	57.8	124	167	107	89.3
AGACAUGAGGAUCACCCAUGUAGUAUGGAUACCAGAUCCAGAUUUAUCCCUUGGCAGCUGUGGUACAGCGUUGCAUCGCUCCUAG [Exclusion - Theophylline A (Freestyle 13)]	28.9		44.5		31.7
AAAGAACAUGAGGAUCACCCAUGUACCGAAGGAGCGGCGAAGAAGCCAGGUAGGUCGCGGAACAUGAAGCGAUUAAGAAUUAAUU	21.5	19.3	25.7	21	20.4
ACAUGAGCAUCAGCCUUGUAGGAACUAGAUACCAGCCCAACAUGAGGCCCUUGGCAGCUGACAACAUGAGGAUCACCCAUGUCAC [Exclusion - Theophylline A #1]	20.1		36.3		38.4
ACAUGAGGAUCACCCAUGUACAUGACGGAAGGAGCGUGCAAAAGCACAGGUAGGUCGCCGAUCUACAUAUUGGGUAUUAUAUUUU [#29 Exclusion - Arginine A]	15.4	19.4	35.7	28.3	24.2
GCAUCCUAGUCGGCCGCCACUGCAUGUAGUUUUGCUACAUGGAAACAUGAGGAUCACCCAUGUAGCAGGACCGGGACUAGGAUGC [(Trp1)-(TM)''-(TM)'-(Ms2)-(Trp2)_Design7]	30.7		36.2	36	
UCGCCCGGGUCGGCCGCCACUGAGGUGAUGUGACAUGAGGAUCACCCAUGUUGUCAUGUGGCACAUAGGACCGGGACCCGGGCGA [Exclusion - Tryptophan B Attempt #3 (HarryS)]	16.4	26.3	41	16.8	22.5
AUCCUCUAGAAUGAUACCAGACCAAACAUGAGGAUCACCCAUGUAUCAGGCAAUUGUUACGUCCCUUGGCAGCAUGUAUGCCGAC [Theo B SS t3]	17.7		31.5		20.2
GGUUAACAUGAGGAUCACCCAUGUCUUGAUACCAGUCGUUAUCUUGACCCUUGGCAGCAAGAUGACCGUUAGCAGCCGUCUUCUC [theeternabot_sameState_MS2_Theo_A_45]	11.9		16.6		13.2
AAACGACAUGAGGAUCACCCAUGUGCCGAUACCAGCCGGAUAUACGGCCCUUGGCAGCGGAGUAAAUCCGGAGGACAAUGGGUAA [Same State Theophylline A GF6]	37.7	57	49.5	92.4	39.5

From the supplement of paper PMC9170038
